Values of other authors, collected in patent US7759315B2, “Treatment of inflammatory conditions of the intestine” (CSL Behring AG, priority 2005, dated 2010).
Non-standard residues stand in square brackets, D forms with d. No end group written: not given here. Orn = NCCC[C@H](N)C(=O)O; Aib = CC(C)(N)C(=O)O

Target: T1, LCAT (Homo sapiens, UniProt P04180)
T1 sequence (P04180 25-440): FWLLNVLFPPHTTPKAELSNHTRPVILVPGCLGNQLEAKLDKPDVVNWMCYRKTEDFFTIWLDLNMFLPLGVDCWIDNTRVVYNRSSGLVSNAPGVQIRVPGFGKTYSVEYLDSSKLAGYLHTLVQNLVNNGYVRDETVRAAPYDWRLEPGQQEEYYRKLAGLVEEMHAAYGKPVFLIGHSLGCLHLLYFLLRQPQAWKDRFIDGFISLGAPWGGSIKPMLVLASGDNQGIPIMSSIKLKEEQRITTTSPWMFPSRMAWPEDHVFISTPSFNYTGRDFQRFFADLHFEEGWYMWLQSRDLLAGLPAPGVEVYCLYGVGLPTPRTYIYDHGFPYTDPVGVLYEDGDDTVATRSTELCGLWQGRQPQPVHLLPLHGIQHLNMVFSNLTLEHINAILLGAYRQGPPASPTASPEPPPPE

Row | ACTIVITY (%) LCAT | Substance
1 | 83% | PVLDLFRELGNELLEALKQKLK [Peptide 9]
2 | 0% | PVLDLFRELLEEGKQKLK* (not fully specified (N-terminus, C-terminus); printed as PVLDLFRELLEEGKQKLK*) [Peptide 229]
3 | 81% | PVLDLFRELLEELKNKLK* (not fully specified (N-terminus, C-terminus); printed as PVLDLFRELLEELKNKLK*) [Peptide 196]
4 | 45% | PVLDLFRELLEELOQOLO* (PVLDLFRELLEEL[Orn]Q[Orn]L[Orn]; not fully specified (N-terminus, C-terminus); printed as PVLDLFRELLEELOQOLO*) [Peptide 211]
5 | 2% | PVLDLFRELLNEELEALKQKLK [Peptide 98]
6 | 70% | PVLDLFRELLNELLEAGKQKLK [Peptide 12]
7 | 18% | PVLDLFRELLNELLEALKQKKK [Peptide 56]
8 | 53% | PVLDLFRELLNELLEALQKKLK [Peptide 24]
9 | 54% | PVLDLFRELLNELLEGLKQKLK [Peptide 22]
10 | 47% | PVLDLFRELLNELLELLKQKLK [Peptide 127]
11 | 4% | PVLDLFRELLNELLE~~~~~~~ [Peptide 97]
12 | 29% | PVLDLFRELLNELLQKLK* (not fully specified (N-terminus, C-terminus); printed as PVLDLFRELLNELLQKLK*) [Peptide 218]
13 | 24% | PVLDLFRELLNELWQKLK [Peptide 219]
14 | 2% | PVLDLFRELLNLXLEALKEKLK (PVLDLFRELLNL[Aib]LEALKEKLK; not fully specified (C-terminus)) [Peptide 102]
15 | 60% | PVLDLFREWLEELKQKLK* (not fully specified (N-terminus, C-terminus); printed as PVLDLFREWLEELKQKLK*) [Peptide 205]
16 | 100% | PVLDLLRELLEELKQKLK* (not fully specified (N-terminus, C-terminus); printed as PVLDLLRELLEELKQKLK*) [Peptide 191]
17 | 59% | PVLDLLRELLNELLEALKQKLK [Peptide 16]
18 | 30% | PVLEFFENLLERLLDALQKKLK [Peptide 157]
19 | 8% | PVLELFDNLLDKLLDALQKKLR [Peptide 180]
20 | 9% | PVLELFDNLLEKLLEALQKKLR [Peptide 178]
21 | 8% | PVLELFDNLLERLLDALQKKLK [Peptide 179]
22 | 18% | PVLELFENGLERLLDALQKKLK [Peptide 167]
23 | 55% | PVLELFENLGERLLDALQKKLK [Peptide 151]
24 | 17% | PVLELFENLLEKLLDALQKKLK [Peptide 169]
25 | 16% | PVLELFENLLEKLLDLLQKKLK [Peptide 171]
26 | 7% | PVLELFENLLEKLLEALQKKLK [Peptide 182]
27 | 76% | PVLELFENLLERLFDALQKKLK [Peptide 147]

Row | ACTIVITY (%) LCAT | Substance
28 | 3% | PVLELFENLLERLLDALQOOLO (PVLELFENLLERLLDALQ[Orn][Orn]L[Orn]; not fully specified (C-terminus)) [Peptide 185]
29 | 23% | PVLELFENLLERLLDLLQKKLK [Peptide 165]
30 | 27% | PVLELFENLLERLLEALQKKLK [Peptide 161]
31 | 13% | PVLELFENLLERLLELLNKKLK [Peptide 175]
32 | 8% | PVLELFENLLERWLDALQKKLK [Peptide 181]
33 | 17% | PVLELFEQLLEKLLDALQKKLK [Peptide 168]
34 | 7% | PVLELFERLLDELLNALQKKLK [Peptide 86]
35 | 35% | PVLELFKELLEELKQKLK [Peptide 216]
36 | 87% | PVLELFKELLEELKQKLK* (not fully specified (N-terminus, C-terminus); printed as PVLELFKELLEELKQKLK*) [Peptide 195]
37 | 59% | PVLELFKELLQELLEALKQKLK [Peptide 17]
38 | 22% | PVLELFLNLLEKLLDALQKKLK [Peptide 166]
39 | 16% | PVLELFLNLLERLGDALQKKLK [Peptide 172]
40 | 35% | PVLELFLNLLERLLDALQKKLK [Peptide 156]
41 | 4% | PVLELFLNLLERLLDAWQKKLK [Peptide 184]
42 | 38% | PVLELFLNLWERLLDALQKKLK [Peptide 155]
43 | 50% | PVLELLKELLEELKQKLK* (not fully specified (N-terminus, C-terminus); printed as PVLELLKELLEELKQKLK*) [Peptide 207]
44 | 11% | PVLELWENLLERLLDALQKKLK [Peptide 176]
45 | 15% | PWLDEFREKLNEXLEALKQKLK (PWLDEFREKLNE[Aib]LEALKQKLK; not fully specified (C-terminus)) [Peptide 64]
46 | 19% | VVLDLFRELLNELLEALKQKLK [Peptide 53]
47 | 33% | XVLDLFRELLNELLEALKQKLK ([Aib]VLDLFRELLNELLEALKQKLK; not fully specified (C-terminus)) [Peptide 32]
48 | 39% | pVLDLFRELLEELKQKLK* ([dP]VLDLFRELLEELKQKLK; not fully specified (N-terminus, C-terminus); printed as pVLDLFRELLEELKQKLK*; also: * mark of unstated meaning) [Peptide 214]
49 | 58% | pVLDLFRELLNEGLEALKQKLK ([dP]VLDLFRELLNEGLEALKQKLK; not fully specified (C-terminus); printed as pVLDLFRELLNEGLEALKQKLK) [Peptide 19]
50 | 90% | pVLDLFRELLNELLEALKQKLKK ([dP]VLDLFRELLNELLEALKQKLKK; not fully specified (C-terminus); printed as pVLDLFRELLNELLEALKQKLKK) [Peptide 5]
51 | 13% | pvlelfenllerlldalgkklk ([dP][dV][dL][dE][dL][dF][dE][dN][dL][dL][dE][dR][dL][dL][dD][dA][dL][dQ][dK][dK][dL][dK]) [Peptide 174]
52 | 15% | ~VLDEFREKLNEXLEALKQKLK (VLDEFREKLNE[Aib]LEALKQKLK; not fully specified (C-terminus); printed as ~VLDEFREKLNEXLEALKQKLK) [Peptide 65]
53 | 23% | ~VLDLFRELLNEGLEALKQKLK [Peptide 47]
54 | 8% | ~~LDEFREKLNEXLEALKQKLK (LDEFREKLNE[Aib]LEALKQKLK; not fully specified (C-terminus); printed as ~~LDEFREKLNEXLEALKQKLK) [Peptide 82]

Row | Substance | ACTIVITY (%) LCAT
55 | PVLDLFRNLLEELLKALEQKLK [Peptide 57] | 18%
56 | PVLELFENLLEOLLDALQOOLO (PVLELFENLLE[Orn]LLDALQ[Orn][Orn]L[Orn]) [Peptide 170] | 17%
57 | pVLDLFRELLNELLEALKQKLK [Peptide 21] | 57%
58 | pvLDLFRELLNELLEALKQKLK [Peptide 48] | 22%
